Patent US12617818 (UNIVERSITY OF NORTH TEXAS, dated 2026)
Primed or numbered codes have the meaning given here. Where no end group is shown, it is not given here. FITC′ = fluorescein isothiocyanate

T1: Cardiac muscle myosin S2 synthetic peptide for GFS, E930del mutant (MYH7 E930del), 35 residues (human, not fully specified)
T1 peptide: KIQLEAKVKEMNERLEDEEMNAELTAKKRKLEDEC

B1: Smooth muscle myosin S2 synthetic peptide for GFS (MYH11), 36 residues (peptide)
peptide: KQELEEILHEMEARLEEEEDRGQQLQAERKKMAQQC
B2: Stabilizer peptide (peptide)
peptide: KKKKKKKKFKAKKKKKK
notes: also called stabilizing peptide; unlabeled stabilizer
B3: Destabilizer peptide (peptide)
peptide: EMNERLEDEREMKAELTAK
notes: also called destabilizing peptide; unlabeled destabilizer
B4: Skeletal muscle myosin S2 synthetic peptide for GFS (MYH2), 36 residues (peptide)
peptide: KIQLEAKIKEVTERAEDEEEINAELTAKKRKLEDEC
B5: Cardiac muscle myosin S2 synthetic peptide for GFS (MYH7), 36 residues (peptide)
peptide: KIQLEAKVKEMNERLEDEEEMNAELTAKKRKLEDEC
modifications: also: crosslinked to coverslip or silica bead through iodoacetamide-succinimidyl ester
B6: Human smooth myosin S2 peptide (MYH11), 21 residues (peptide)
peptide: EMEARLEEEEDRGQQLQAERK
modifications: also: in FRET: FITC on N-terminus of one monomer, terbium-DTPA-cytosine chelate on C-terminal Lys of the other
notes: also called smooth muscle myosin S2^pep
B7: Human β-cardiac mutant myosin S2 peptide (E924K), 19 residues (peptide)
peptide: EMNKRLEDEEEMNAELTAK
modifications: also: in FRET: FITC on N-terminus of one monomer, terbium-DTPA-cytosine chelate on C-terminal Lys of the other
notes: E924K already in the entry; also called Cardiac Myosin S2 Mutant, E924K
B8: Human β-cardiac myosin S2 peptide, wild-type (MYH7, 19 residues) (peptide)
peptide: EMNERLEDEEEMNAELTAK
modifications: also: in FRET: FITC on N-terminus of one monomer, terbium-DTPA-cytosine chelate on C-terminal Lys of the other
notes: Chemically synthesized; forms a coiled-coil dimer; also called human cardiac myosin S2 peptide; cardiac muscle myosin S2^pep
B9: Human β-cardiac mutant myosin S2 peptide (E930del), 18 residues (peptide)
peptide: EMNERLEDEEMNAELTAK
modifications: also: in FRET: FITC on N-terminus of one monomer, terbium-DTPA-cytosine chelate on C-terminal Lys of the other
notes: Deletion of glutamate 930 already in the entry; also called Edel930; ΔE930
B10: Human skeletal myosin S2 peptide (MYH2), 19 residues (peptide)
peptide: EVTERAEDEEEINAELTAK
modifications: also: in FRET: FITC on N-terminus of one monomer, terbium-DTPA-cytosine chelate on C-terminal Lys of the other
notes: also called skeletal muscle myosin S2^pep
B11: FITC (fluorescein isothiocyanate) labeled destabilizing peptide (peptide)
peptide: {FITC′}-EMNERLEDEREMKAELTAK
notes: also called labeled Destabilizer; fluorescein labeled destabilizer peptide
B12: TRITC (tetramethylrhodamine) labeled stabilizing peptide (peptide)
peptide: KKKKKKKKFKAKKKKKK
modifications: also: TRITC label, site not given here
notes: also called labeled Stabilizer; fluorescently labelled stabilizer peptide

Experiments:
[1] = target: the molecule itself; test: cell-based or functional assay
Rabbit skeletal myosin [2] = target: Rabbit skeletal myosin (rabbit); test: cell-based or functional assay
[3] = target: B4; test: cell-based or functional assay
[4] = target: B5; test: cell-based or functional assay
[5] = target: T1, Cardiac muscle myosin S2 synthetic …; test: cell-based or functional assay
[6] = target: B10; test: FRET donor lifetime of 0.1 µM labelled S2 peptide dimer titrated with stabilizer
[7] = target: B7; test: as above
[8] = target: B9; test: as above
[9] = target: B7; test: FRET donor lifetime of 0.1 µM labelled dimer titrated with stabilizer; text value and unit differ from Table 3
From the text: (§1) Donor probe was conjugated to C-terminus of a myosin S2 peptide monomer and acceptor probe was conjugated to N-terminus of another myosin S2 peptide. In FRET as lanthanide of the donor probe decays, energy goes to fluorescein and it emits out energy in form of light. In addition, as the monomers come closer to each other, lifetime of donor decreases indicating a decrease in distance between donor and acceptor probe; an opposite effect is observed, with an increase in distance between the probes, […]. Lifetime of donor probe was measured in milliseconds.

[10] = target: B6; test: FRET donor lifetime of the labelled smooth muscle S2 peptide dimer titrated with the peptide
From the text: as §1
The specificity of peptides were later tested on the myosin S2 of the smooth muscle (MYH11). […] Smooth muscle myosin S2^pep was treated with different concentrations of anti-S2 peptides.

[11] = target: B8; test: FRET donor lifetime of labelled S2 peptide dimer titrated with stabilizer
From the text: as §1
(§2) During FRET assay, cardiac muscle myosin S2^pep was treated with increasing concentrations of anti-S2 peptides. […] Dilution to decrease the concentration of dimer cardiac muscle myosin S2^pep was performed to measure binding affinity of coiled-coil peptide and in turn to measure minimal concentration for stable dimer formation (FIG. 25A). […] (FIG. 25B)

[12] = target: B8; test: competitive ELISA (curve fit of OD), printed as 'binding efficiency'; antibody 1:64, 62.5 nM S2 peptide, stabilizer 0 to 250 nM, rabbit skeletal myosin coated
Method: (§3) Unbound protein complexes are washed off by PBS and blocking buffer. Enzyme conjugated secondary antibody is added to the wells and allowed to conjugate for an hour. After washing with detergent buffer, color developing substrate BCIP is added and development of color in the wells is recorded. The video is analyzed by Image J to get the OD in the wells.

[13] = target: B8; test: competitive ELISA, printed as 'binding constant'; differs from 1.37 nM at paragraph 347
Method: as §3

[14] = target: B1; test: cell-based or functional assay
[15] = target: B4; test: cell-based or functional assay
[16] = target: B5; test: cell-based or functional assay
[17] = target: T1, Cardiac muscle myosin S2 synthetic …; test: cell-based or functional assay
[18] = target: B8; test: competitive ELISA, printed as 'binding efficiency'
Method: as §3

Rabbit skeletal myosin [19] = target: T2, Rabbit skeletal myosin (rabbit); test: 'previously calculated Kd values'; row stands under the IC-50 head for stabilizers, read as unlabeled stabilizer; method and source of the myosin not stated
T2 construct: mature; also called rabbit whole skeletal myosin; rabbit skeletal myosin S2
T2 sequence (Q28641 whole entry, chain 1 of 3): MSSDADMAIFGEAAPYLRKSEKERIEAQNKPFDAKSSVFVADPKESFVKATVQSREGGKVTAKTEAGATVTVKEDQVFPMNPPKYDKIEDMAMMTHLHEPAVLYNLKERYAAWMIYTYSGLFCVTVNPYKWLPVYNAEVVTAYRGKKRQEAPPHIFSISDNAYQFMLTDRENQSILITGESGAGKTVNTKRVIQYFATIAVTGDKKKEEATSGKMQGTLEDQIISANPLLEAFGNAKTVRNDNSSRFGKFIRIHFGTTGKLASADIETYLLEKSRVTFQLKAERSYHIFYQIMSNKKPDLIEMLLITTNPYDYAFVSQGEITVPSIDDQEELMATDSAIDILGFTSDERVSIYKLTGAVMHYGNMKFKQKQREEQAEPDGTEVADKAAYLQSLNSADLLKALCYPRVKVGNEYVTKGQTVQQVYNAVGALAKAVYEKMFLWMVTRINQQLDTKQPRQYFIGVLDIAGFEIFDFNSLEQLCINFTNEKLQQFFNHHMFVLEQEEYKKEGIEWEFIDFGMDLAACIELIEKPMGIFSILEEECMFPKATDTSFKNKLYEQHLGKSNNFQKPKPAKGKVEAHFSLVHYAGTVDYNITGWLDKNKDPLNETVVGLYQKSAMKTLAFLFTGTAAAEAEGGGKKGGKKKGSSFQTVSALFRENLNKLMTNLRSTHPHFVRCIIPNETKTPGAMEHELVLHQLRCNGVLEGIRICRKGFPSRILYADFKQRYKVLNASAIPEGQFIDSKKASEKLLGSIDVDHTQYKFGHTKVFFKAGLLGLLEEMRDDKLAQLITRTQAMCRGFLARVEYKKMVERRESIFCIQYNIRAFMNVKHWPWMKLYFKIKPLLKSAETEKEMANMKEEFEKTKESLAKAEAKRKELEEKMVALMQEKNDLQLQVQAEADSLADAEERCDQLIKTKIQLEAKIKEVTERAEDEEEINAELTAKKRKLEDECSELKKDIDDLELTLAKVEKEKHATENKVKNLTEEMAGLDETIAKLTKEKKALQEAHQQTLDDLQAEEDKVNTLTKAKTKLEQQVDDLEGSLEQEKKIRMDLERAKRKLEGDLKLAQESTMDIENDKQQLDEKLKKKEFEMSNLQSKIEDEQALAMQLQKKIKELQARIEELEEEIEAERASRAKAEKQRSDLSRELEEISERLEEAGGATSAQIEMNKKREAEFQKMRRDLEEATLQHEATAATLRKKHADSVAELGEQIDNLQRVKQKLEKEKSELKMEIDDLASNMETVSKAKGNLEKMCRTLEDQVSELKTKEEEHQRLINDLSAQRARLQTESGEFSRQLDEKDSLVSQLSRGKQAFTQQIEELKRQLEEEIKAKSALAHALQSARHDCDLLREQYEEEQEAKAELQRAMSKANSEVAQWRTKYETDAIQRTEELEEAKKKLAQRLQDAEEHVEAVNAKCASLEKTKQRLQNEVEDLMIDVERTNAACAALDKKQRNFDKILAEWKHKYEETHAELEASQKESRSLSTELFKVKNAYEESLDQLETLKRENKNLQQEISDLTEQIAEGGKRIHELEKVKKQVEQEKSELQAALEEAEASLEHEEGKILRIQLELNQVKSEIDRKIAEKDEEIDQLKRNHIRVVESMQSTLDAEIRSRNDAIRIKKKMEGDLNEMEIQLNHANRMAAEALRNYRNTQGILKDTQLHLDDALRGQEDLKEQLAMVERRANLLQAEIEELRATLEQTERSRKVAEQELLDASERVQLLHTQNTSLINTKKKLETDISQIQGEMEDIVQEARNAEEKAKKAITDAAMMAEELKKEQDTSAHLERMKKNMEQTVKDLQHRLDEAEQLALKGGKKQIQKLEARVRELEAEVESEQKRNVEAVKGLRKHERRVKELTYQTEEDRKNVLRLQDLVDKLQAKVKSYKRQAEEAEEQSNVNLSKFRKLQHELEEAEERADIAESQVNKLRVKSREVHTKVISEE
T2 sequence (P02602 2-192, chain 2 of 3, further chain): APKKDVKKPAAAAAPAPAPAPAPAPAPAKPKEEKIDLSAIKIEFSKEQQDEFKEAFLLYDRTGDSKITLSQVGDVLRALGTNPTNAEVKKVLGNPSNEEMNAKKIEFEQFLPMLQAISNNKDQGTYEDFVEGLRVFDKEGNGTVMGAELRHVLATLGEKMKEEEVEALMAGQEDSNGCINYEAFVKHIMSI
T2 sequence (P02608 2-170, chain 3 of 3, further chain): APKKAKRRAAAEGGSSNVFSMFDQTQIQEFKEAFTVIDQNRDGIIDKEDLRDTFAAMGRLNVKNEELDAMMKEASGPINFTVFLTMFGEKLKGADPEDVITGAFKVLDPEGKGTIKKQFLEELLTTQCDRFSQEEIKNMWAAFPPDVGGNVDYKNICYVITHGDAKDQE

[20] = target: B8; test: FRET donor lifetime of labelled S2 peptide dimer titrated with destabilizer
From the text: as §1, §2

[21] = target: B8; test: competitive ELISA (FIG. 44); differs from 6 nM at paragraph 385
Method: (§4) The assay began with coating 96 well microtiter plate with rabbit skeletal myosin molecule overnight. […] After incubation at room temperature for an hour, the unbound protein complexes were washed with PBS and blocking buffer. Enzyme conjugated secondary antibody were added on to the wells and allowed conjugate for an hour at room temperature. After washing the wells with detergent buffer, color developing BCIP substrate were added on to the wells. Images of the color developed in the wells were captured and analyzed in Image J.

[22] = target: B8; test: competitive ELISA (curve fit of OD, FIG. 44B); antibody 1:64, 62.5 nM human cardiac S2 peptide, rabbit skeletal myosin coated; the sentence does not name the target
Method: as §4

Rabbit skeletal myosin [23] = target: T2, Rabbit skeletal myosin; test: 'previously calculated Kd values, concentrations at which half of myosin is saturated'; method and source of the myosin not stated
[24] = target: B10; test: FRET donor lifetime of 2 µM labelled S2 peptide dimer titrated with destabilizer
From the text: as §1
Like cardiac muscle myosin S2^pep, dilution by decreasing the concentration of dimer skeletal muscle myosin S2^pep was performed and further was treated with different concentrations of anti-S2 peptides (FIG. 28A, 28B). Different concentrations of dimer skeletal muscle myosin S2^pep was used with anti-S2 peptides.

[25] = target: the molecule itself; test: FRET donor lifetime on dilution of donor- and acceptor-labelled peptide; dissociation of the S2 peptide coiled-coil dimer (control)
[26] = target: the molecule itself; test: FRET, dimer dissociation (control); text value differs from Table 3
Rabbit skeletal myosin [27] = target: T2, Rabbit skeletal myosin; test: 'previously calculated Kd values'; row stands under the IC-50 head for stabilizers, read as labeled stabilizer; method and source of the myosin not stated

With B1 the “GFS: force to uncoil the S2 peptide dimer to a length of 10 nm, no anti-S2 peptide (control)” value (“GFS: force … no anti-S2 peptide (control)” below) [1] was 0.461 pN.

With B2 the “GFS: fold of force required to uncoil myosin in presence of stabilizer against control” value (Rabbit skeletal myosin [2]) was 1.5 times, the “GFS: fold increase of the force required to uncoil the coiled coil against control” value (shortened to “GFS: fold increase of the force required”) [3] was 1.4 times and the “GFS: fold increase of the force required” value [4] was 1.8 times. The “GFS: fold increase of the force required” value [5] was 2.6 times, the Kd [6] was 0.0197 µM and the Kd [7] was 0.034 µM. The Kd [8] was 0.238 µM, the Kd [9] was 36200 µM and the binding result [10] was “no binding”. For the same binder, the Kd [11] was 0.0212 µM, the Kd [12] was 0.00137 µM and the Kd [13] was 0.00138 µM. The “GFS: force to uncoil the S2 peptide dimer to a length of 10 nm, with stabilizer” value (from here on “GFS: force … with stabilizer”) [14] was 0.496 pN, the “GFS: force … with stabilizer” value [15] was 0.628 pN and the “GFS: force … with stabilizer” value [16] was 1.55 pN. The “GFS: force … with stabilizer” value [17] was 1.07 pN, the Kd [18] was 0.001 µM and the Kd (Rabbit skeletal myosin [19]) was 0.006 µM.

B3 was tested, and the Kd [20] was 1.33 µM, the “GFS: fold less force required to uncoil myosin in presence of destabilizer against control” value (Rabbit skeletal myosin [2]) was 1.6 times and the “GFS: fold decrease of the force required to uncoil the coiled coil against control” value [3] was 2.45 times. The “GFS: fold decrease of the force required to uncoil the coiled coil against control” value [4] was 1.98 times, the binding result [10] was “no binding” and the Kd [21] was 0.001 µM. The Kd [22] was 0.006 µM, the Kd (Rabbit skeletal myosin [23]) was 0.075 µM and the Kd [24] was 0.469 µM. The “GFS: force to uncoil the S2 peptide dimer to a length of 10 nm, with destabilizer” value (shortened to “GFS: force … with destabilizer”) [14] was 0.451 pN, the “GFS: force … with destabilizer” value [15] was 0.184 pN and the “GFS: force … with destabilizer” value [16] was 0.436 pN.

With B4 the “GFS: force … no anti-S2 peptide (control)” value [1] was 0.45 pN.

B5 was tested, and the “GFS: force … no anti-S2 peptide (control)” value [1] was 0.863 pN.

With B6 the Kd [25] was 0.302 µM.

Binder B7 has a Kd [26] of 2.54 µM and a Kd [25] of 0.942 µM.

With B8 the Kd [26] was 0.308 µM and the Kd [25] was 0.303 µM.

B9 showed a Kd [26] of 3.24 µM and a Kd [25] of 1.11 µM.

B10 showed a Kd [25] of 0.341 µM.

B11 showed a Kd (Rabbit skeletal myosin [23]) of 0.176 µM.

With B12 the Kd (Rabbit skeletal myosin [27]) was 0.33 µM.
